Measured values reported in patent US20030199071A1 (published 2003).

Molecular target: FimH Q133A (E. coli, UniProt P08191 22-300)
Experiment: co-expression with FimC in E. coli; data not shown

B1: FimC (wild type periplasmic chaperone of E. coli type 1 pili) (other)
chain: GVALGATRVIYPAGQKQVQLAVTNNDENSTYLIQSWVENADGVKDGRFIVTPPLFAMKGKKENTLRILDATNNQLPQDRESLFWMNVKAIPSMDKSKLTENTLQLAIISRIKLYYRPAKLALPPDQAAEKLRFRRSANSLTLINPTPYYLTVTELNAGTRVLENALVPPMGESTVKLPSDAGSNITYRTINDYGALTPKMTGVME
notes: also called FimC alone; wild type FimC
B1: binds.
